Molecular target: coreTFIIH (7-subunit: XPB, XPD, p62, p52, p44, p34, p8);XPG (human;human) (UniProt P19447+P18074+P32780+Q92759+Q13888+Q13889+Q6ZYL4+P28715)
Assay: EMSA

**Q.** For “TTTTTTTTTTTTTTTTTTTTTTTTTTTTTNTTTTTTTTTTGCCTCGCTGCCGTCGCCA / TGGCGACGGCAGCGAGGC [Chol11]”, which binding signal (fold lower Kd than XPG alone) (cholesterol moiety at N (between S12 and S13), position 11 from ss/ds junction) is on record?
**A.** 8

**Q.** For “TTTTTTTTTTTTTTTTTTTTTTTTTTTTTTTTTTTTNTTTGCCTCGCTGCCGTCGCCA / TGGCGACGGCAGCGAGGC [Chol4]”, which binding signal (fold lower Kd than XPG alone) (cholesterol moiety at N (between S10 and S11), position 4 from ss/ds junction) is on record?
**A.** 7

From paper PMC9943652
